For assay [1], the target named is T1, human Claudin 18.2 (hClaudin18.2) (human, UniProt P56856-2 1-261). The assay is described as follows: cell-based or functional assay.
The target of assay [2] is T2, hClaudin 18.2 peptide 18.2EL1-A (human).
T2 construct: also called peptide A; A peptide
T2 peptide: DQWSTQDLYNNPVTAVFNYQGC
Briefly: peptide competition: antibody pre-incubated with peptide, then flow cytometry on CHO cells overexpressing claudin18.2.

Assay [3] deals with T1, human Claudin 18.2 (hClaudin18.2). The assay is described as follows: flow cytometry on CHO cells overexpressing claudin18.2, purified murine antibody. Background: In flow cytometry, cells or beads pass a laser one at a time.
Description: CHO overexpressing claudin18.1 cells and CHO overexpressing claudin18.2 cells were prepared, centrifuged at 300 g for 5 minutes, then resuspended in PBS, and this step was repeated twice. Finally, the concentration was adjusted to 3E+06 cells/mL with PBS. […] CHO overexpressing claudin18.1 cells and CHO overexpressing claudin18.2 cells were laid out in two rows of transparent 96 round-bottomed wells, each with 100 μL, and then the antibodies were added to the cells in order and mixed evenly at 1:1. Each was set blank wells and negative wells. The mixture was put in a refrigerator at 4° C. and incubated for 1 hour. After the incubation, the mixture was centrifuged at 500 g for 3 min in a large-capacity benchtop high-speed centrifuge, then resuspended in PBS, and this step was repeated three times. The PE-labeled goat anti-mouse secondary antibody was diluted to a concentration of 1:500, and 100 μL was added to each well. The blank wells were left alone. The mixture was put in a refrigerator at 4° C. and incubated for 30 min. After the incubation, the mixture was centrifuged at 500 g for 3 min in a large-capacity tabletop high-speed centrifuge, then resuspended in PBS, and this step was repeated three times. Finally, 180 μL of PBS was added to each well and BDverse flow cytometer was used to test.
Assay [4] deals with T3, hClaudin 18.2 peptide 18.2EL1-E (human).
T3 construct: also called peptide E; E peptide
T3 peptide: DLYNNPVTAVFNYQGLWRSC
Briefly: peptide competition: antibody pre-incubated with peptide, then flow cytometry on CHO cells overexpressing claudin18.2.

Assay [5] concerns the target T1, human Claudin 18.2 (hClaudin18.2). Briefly: flow cytometry on CHO cells overexpressing claudin18.2, scFv-Fc fusion protein.
Description: CHO overexpressing claudin18.2 cells were prepared and centrifuged at 300 g for 5 minutes, then resuspended in PBS, and this step was repeated twice. Finally, the concentration was adjusted to 3E+06 cells/mL with PBS. […] CHO overexpressing claudin18.1 cells and CHO overexpressing claudin18.2 cells were laid out in two rows of transparent 96 round-bottomed wells, each with 100 μL, and then the antibodies were added to the cells in order and mixed evenly at 1:1. Each was set blank wells and negative wells. The mixture was put in a refrigerator at 4° C. and incubated for 1 hour. After the incubation, the mixture was centrifuged at 500 g for 3 min in a large-capacity benchtop high-speed centrifuge, then resuspended in PBS, and this step was repeated three times. The PE-labeled goat anti-human secondary antibody was diluted to a concentration of 1:500, and 100 μL was added to each well. The blank wells were left alone. The mixture was put in a refrigerator at 4° C. and incubated for 30 min. After the incubation, the mixture was centrifuged at 500 g for 3 min in a large-capacity tabletop high-speed centrifuge, then resuspended in PBS, and this step was repeated three times. Finally, 180 μL of PBS was added to each well and BDverse flow cytometer was used to test.

B1: IMAB362 control antibody (antibody, V domains shown)
VH: QVQLQQPGAELVRPGASVKLSCKASGYTFTSYWINWVKQRPGQGLEWIGNIYPSDSYTNYNQKFKDKATLTVDKSSSTAYMQLSSPTSEDSAVYYCTRSWRGNSFDYWGQGTTLTVSS
VL: DIVMTQSPSSLTVTAGEKVTMSCKSSQSLLNSGNQKNYLTWYQQKPGQPPKLLIYWASTRESGVPDRFTGSGSGTDFTLTISSVQAEDLAVYYCQNDYSYPFTFGSGTKLEIKR
As to B1, in assay [1], the “ADCC reporter (Jurkat-NFAT-Luc-CD16 luciferase), half-peak concentration EC50, target cell BXPC-3-Claudin 18.2” value (from here on “ADCC reporter … target cell BXPC-3-Claudin 18.2”) is 3.45 ng/mL; the “ADCC reporter (Jurkat-NFAT-Luc-CD16 luciferase), half-peak concentration EC50, target cell Capan-1-Claudin 18.2” value (from here on “ADCC reporter … target cell Capan-1-Claudin 18.2”) was found to be 3.48 ng/mL; the “ADCC reporter (Jurkat-NFAT-Luc-CD16 luciferase), half-peak concentration EC50, target cell SK-GT-Claudin 18.2” value (shortened to “ADCC reporter … target cell SK-GT-Claudin 18.2”) is 9.06 ng/mL; the “CDC activity (CCK8 cell viability, OD450), half inhibitory concentration IC50, target cell KATOIII-3-Claudin 18.2” value was 4890 ng/mL.

B2: chimeric antibody 1B6 (antibody, human IgG1, kappa)
heavy: not shown
light: DIVMTQSPSSLTVTAGEKVTMSCKSSQSLFNSGNQKNYLTWYQQKPGQPPKLLIYWASTRESGVPDRFTGSGSGTDFTLTISSVQAEDLAVYFCQNDYSYPLTFGAGTKLELRRTVAAPSVFIFPPSDEQLKSGTASVVCLLNNFYPREAKVQWKVDNALQSGNSQESVTEQDSKDSTYSLSSTLTLSKADYEKHKVYACEVTHQGLSSPVTKSFNRGEC
On to B2, for which, in assay [1], the “ADCC reporter … target cell BXPC-3-Claudin 18.2” value was found to be 2.11 ng/mL; the “ADCC reporter … target cell Capan-1-Claudin 18.2” value was determined as 2.68 ng/mL; the “ADCC reporter … target cell SK-GT-Claudin 18.2” value amounted to 4.47 ng/mL; the “CDC activity (CCK8 cell viability, OD450), half inhibitory concentration IC50, target cell KATOIII-3-Claudin 18.2” value came to 2660 ng/mL.

B3: chimeric antibody 1E7 (antibody, human IgG1, kappa)
heavy: not shown
light: DIVMTQSPSSLSVTAGEKVTMSCKSSQSLLNSGNQKNYLTWYQQKPGQPPKLLIYWASTRESGVPDRFTGSGSGTDFTLTISSVQAEDLAVYYCQNDYSYPFTFGSGTKLEIKRTVAAPSVFIFPPSDEQLKSGTASVVCLLNNFYPREAKVQWKVDNALQSGNSQESVTEQDSKDSTYSLSSTLTLSKADYEKHKVYACEVTHQGLSSPVTKSFNRGEC
Regarding B3, in assay [1], the “ADCC reporter … target cell BXPC-3-Claudin 18.2” value was 2.7 ng/mL; the “ADCC reporter … target cell Capan-1-Claudin 18.2” value was determined as 2.63 ng/mL; the “ADCC reporter … target cell SK-GT-Claudin 18.2” value was 7.07 ng/mL; the “CDC activity (CCK8 cell viability, OD450), half inhibitory concentration IC50, target cell KATOIII-3-Claudin 18.2” value was 1570 ng/mL.

B4: m1E7 anti-Claudin 18.2 murine monoclonal antibody (antibody, mouse IgG2b, kappa)
heavy: QVQLQQPGSELVKPGASVKLSCKASGYTFTSYWMHWVKQRPGQGLEWIGMIHPNSGSTNYNEKFKSKATLTVDKSSSTAYMQLSSLTSEDSAVYYCARRYYGSISPDYWGQGTTLTVSSAKTTPPSVYPLAPGCGDTTGSSVTLGCLVKGYFPESVTVTWNSGSLSSSVHTFPALLQSGLYTMSSSVTVPSSTWPSQTVTCSVAHPASSTTVDKKLEPSGPISTINPCPPCKECHKCPAPNLEGGPSVFIFPPNIKDVLMISLTPKVTCVVVDVSEDDPDVQISWFVNNVEVHTAQTQTHREDYNSTIRVVSTLPIQHQDWMSGKEFKCKVNNKDLPSPIERTISKIKGLVRAPQVYILPPPAEQLSRKDVSLTCLVVGFNPGDISVEWTSNGHTEENYKDTAPVLDSDGSYFIYSKLNMKTSKWEKTDSFSCNVRHEGLKNYYLKKTISRSPGK
light: DIVMTQSPSSLSVTAGEKVTMSCKSSQSLLNSGNQKNYLTWYQQKPGQPPKLLIYWASTRESGVPDRFTGSGSGTDFTLTISSVQAEDLAVYYCQNDYSYPFTFGSGTKLEIKRADAAPTVSIFPPSSEQLTSGGASVVCFLNNFYPKDINVKWKIDGSERQNGVLNSWTDQDSKDSTYSMSSTLTLTKDEYERHNSYTCEATHKTSTSPIVKSFNRNEC
notes: Murine antibody with full heavy and light chains; also called 1E7 (hybridoma); m1E7 mAb
For the molecule B4, the binding result in assay [2] is “binds”. The molecule also gave an EC50 in assay [3] of approximately 100 ng/mL.

B5: m1B6 anti-Claudin 18.2 murine monoclonal antibody (antibody, mouse IgG2b, kappa)
heavy: EVQLQQSGPELVRPGASVKMSCKASGYTFTDYNMHWVKQSHGKSLEWIGYINPNNGGTSYNQKFKGKATLTVNKSSSTAYMELRSLTSEDSAVYYCVTTRYLAVWGTGTTVTVSSAKTTPPSVYPLAPGCGDTTGSSVTLGCLVKGYFPESVTVTWNSGSLSSSVHTFPALLQSGLYTMSSSVTVPSSTWPSQTVTCSVAHPASSTTVDKKLEPSGPISTINPCPPCKECHKCPAPNLEGGPSVFIFPPNIKDVLMISLTPKVTCVVVDVSEDDPDVQISWFVNNVEVHTAQTQTHREDYNSTIRVVSTLPIQHQDWMSGKEFKCKVNNKDLPSPIERTISKIKGLVRAPQVYILPPPAEQLSRKDVSLTCLVVGFNPGDISVEWTSNGHTEENYKDTAPVLDSDGSYFIYSKLNMKTSKWEKTDSFSCNVRHEGLKNYYLKKTISRSPGK
light: DIVMTQSPSSLTVTAGEKVTMSCKSSQSLFNSGNQKNYLTWYQQKPGQPPKLLIYWASTRESGVPDRFTGSGSGTDFTLTISSVQAEDLAVYFCQNDYSYPLTFGAGTKLELRRADAAPTVSIFPPSSEQLTSGGASVVCFLNNFYPKDINVKWKIDGSERQNGVLNSWTDQDSKDSTYSMSSTLTLTKDEYERHNSYTCEATHKTSTSPIVKSFNRNEC
notes: Murine antibody with full heavy and light chains; also called 1B6 (hybridoma); m1B6 mAb
In the case of B5, the binding result in assay [2] and in assay [4] was “binds” in each case. In addition, the EC50 in assay [3] is approximately 60 ng/mL.

B6: m1B6-FC anti-Claudin 18.2 scFv-Fc fusion protein (Fc fusion)
scFv: DIVMTQSPSSLTVTAGEKVTMSCKSSQSLFNSGNQKNYLTWYQQKPGQPPKLLIYWASTRESGVPDRFTGSGSGTDFTLTISSVQAEDLAVYFCQNDYSYPLTFGAGTKLELRGGGGSGGGGSGGGGSEVQLQQSGPELVRPGASVKMSCKASGYTFTDYNMHWVKQSHGKSLEWIGYINPNNGGTSYNQKFKGKATLTVNKSSSTAYMELRSLTSEDSAVYYCVTTRYLAVWGTGTTVTVSS
notes: also called m1B6 (Fc fusion protein form); 1B6 scFv-Fc; not shown: detected wi
B6 gave an EC50 in assay [5] of approximately 500 ng/mL.

B7: m1E7-FC anti-Claudin 18.2 scFv-Fc fusion protein (Fc fusion)
scFv: DIVMTQSPSSLSVTAGEKVTMSCKSSQSLLNSGNQKNYLTWYQQKPGQPPKLLIYWASTRESGVPDRFTGSGSGTDFTLTISSVQAEDLAVYYCQNDYSYPFTFGSGTKLEIKGGGGSGGGGSGGGGSQVQLQQPGSELVKPGASVKLSCKASGYTFTSYWMHWVKQRPGQGLEWIGMIHPNSGSTNYNEKFKSKATLTVDKSSSTAYMQLSSLTSEDSAVYYCARRYYGSISPDYWGQGTTLTVSS
notes: also called m1E7 (Fc fusion protein form); 1E7 scFv-Fc; not shown: detected wi
With B7, in assay [5], the EC50 was approximately 2600 ng/mL.

The term EC50 denotes the concentration at which the effect is half-maximal. The low end stands for higher potency in that assay, the high end for lower potency in that assay.

Source of the values: patent publication US20250270313A1 (SUNSHINE LAKE PHARMA, published 2025).
